This data set can be described thus: yeast display, Sf9 membrane polyspecificity reagent, FACS + sequencing; frameworks hold sequencing errors. An outline of the steps: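 A nanobody's polyreactivity label depends on the gate it was sorted from. Yeast display cells were stained with 10% biotinylated, detergent-solubilized Sf9 membrane reagent for 1 hour at 4 °C, enriched on streptavidin microbeads and sorted by FACS. The low and high (top ~1%) gates were set on anti-HA fluorescence for expression and streptavidin fluorescence for reagent binding.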
Regarding “QVQLVESGGGLDQAGGSLRLICAASGLTFPYYARGWSIQAPGKEMEVVAGITDDGGDTYYADSVKGRLTISRDYAKNTVYLQMNSLKPEDTAVYFCAADGWFQGWFGYGYWGQGTQVTVSS”, the “polyreactivity (PSR sort gate)” value is on record as “high polyreactivity”. The result for “QVQLVESGGGLDQAGGSLRLICAASGRTYDTNAMGWYRQAPGKEREFVAAINTGGNTYYADSVKGRFTISRDNAKNTVYLQMNSLIPEDTAVYYSAAYYYYFYHKVIWYELDYWGQGTQVTLSS” reads “low polyreactivity”.

For “QVQLVESGGGLDQAGGSLRLSCAASGFIFIQNDMGWYRQAPGKEREFVASISKDGGRTYYADSVKGRFTISRDNAKNTVYLQMNSLKPEDTAVVYCNTYPRGNWGNFVEQDYDYWGHGTQVTVSS”, the “polyreactivity (PSR sort gate)” value was “low polyreactivity”.

Turning to “QVQLVESGGGLDQAGGSLRLSCAASGFIFITYEMGWYRQAPGKQMELVAVITSGGTTNYADSVKGRFTISRDNAKNTVYLQMNSLKPEDTAVYYCAAEDYVIGDSGYDYWGQGTQVTVSS”, the “polyreactivity (PSR sort gate)” value is “low polyreactivity”. With “QVQLVESGGGLDQAGGSLRLSCAASGFIFNKYALGRSRQAPGTEREFVATIRRDGSTNYADSVKGRFTISRDNAKNTVYLQMNSLKPEDTAVYSCAKRPWYHADWWDDHWGQGTQVTVSS”, the “polyreactivity (PSR sort gate)” value is on record as “high polyreactivity”. For “QVQLVESGGGLDQAGGSLRLSCAASGFIFRAYAMGLYRQAPGKERELVAAISWGGGSTYYADSVKGRFTISRDNAKNTVYLQMNSLKPEDTAVYYCAAEYEAYAYEYWGQGTQVTVSS” the value was “high polyreactivity”. For “QVQLVESGGGLDQAGGSLRLSCAASGFIFWRNTMGWYRPAPGKERELVAVITRGGSTYYADSVKGRFTISRDTAKNTVYLQMNSLKPEDTAVYNSAARNDYFKTFSGYDYWGQGTQVTVSS” the value was “low polyreactivity”; for “QVQLVESGGGLDQAGGSLRLSCAASGFIFYDYDMGWYRQAPGKERELVAAISDGGSTNYADSVKGRFTISRDNAKNTVYFQRNSLKPEDTAVYYCAKDGFVYYDYFQYIEYDYWGQGTQVTVSS”, “low polyreactivity”; for “QVQLVESGGGLDQAGGSLRLSCAASGFTFWRYAMGWYRQAPGKERELVAAISWSGGSTYYADSVKGRFTISRDNAKNTVYLQMNSLKPEDTAVYYCTAQYGSRSYRYGYWGQGTQVTVSS”, “high polyreactivity”. Turning to “QVQLVESGGGLDQAGGSLRLSCAASGFTFYPNAMGWYRQAPGKERELVAAINSGGSTYYADSVKGRFTISRDNAKNTVYLQMNSLKPEDTAVYYCAAYGKRGAVAFYYWGQGTQVTVSS”, the “polyreactivity (PSR sort gate)” value is “high polyreactivity”. Take “QVQLVESGGGLDQAGGSLRLSCAASGFTFYPYAMGWYRQAPGKERELVASITSAGGTNYADSVKGRFTISRDNAKNTVYVQLNSLKPEDTAVYYCAAKYRSRGPDYYFNSDYWGQGTQVTVSS”: the “polyreactivity (PSR sort gate)” value is “low polyreactivity”. For “QVQLVESGGGLDQAGGSLRLSCAASGFTLDYYAMGWYRQAPGKERELVAAISWSGGRTYYADSVKGRFTISRDNAKNTVYLQMNSLKPEDTAVYYCNASPYGRKYGILADGDYWGQGTQVTVSS” the value was “high polyreactivity”; for “QVQLVESGGGLDQAGGSLRLSCAASGFTSYLYTMGWYRQAPGKERELVAAISNSGGNTYYADSLKGRFTISRDIAKKTVYLQMNSLKPEDTAVYYCAAVRRISRYDYWGQGTQVTVSS”, “high polyreactivity”; for “QVQLVESGGGLDQAGGSLRLSCAASGIIFWYYAMGWYRQAPGKEMELVAAINWNGDSTHYADSVKGRFTISRDNAKNTVYLQMNILKPEDTAVYYCAARTYTLRGVYFSGYNYWGQATQVTVSS”, “low polyreactivity”. Regarding “QVQLVESGGGLDQAGGSLRLSCAASGISFIIYVMGWYRQAPGKERELVAAISSTGSTYYADSVKGRFTISRDNAKNTVYLQMNSQKPEDTAVYYCAKRKFTARQRYNYWGQGTQVTVSS”, the “polyreactivity (PSR sort gate)” value is “high polyreactivity”. For “QVQLVESGGGLDQAGGSLRLSCAASGITFLDNDMGWYRQAPGKERELVAAINSGVSTYYADSVKGRFTISLDNAKNTVYLQMNSLKPEDTAVYYCAADRPDVAGDYWGQGTQVTVSS” the value was “low polyreactivity”. In the case of “QVQLVESGGGLDQAGGSLRLSCAASGITFPGYAMGWYRQAPGKERELVAAIDWSGDGTYYADSVKGRFTISRDNAKNTVYLQMNSLKPEDTAVYYCAKDNYPNHSTVLAVIYDYWGQGTQVTVSS”, the “polyreactivity (PSR sort gate)” value is listed as “low polyreactivity”. As for “QVQLVESGGGLDQAGGSLRLSCAASGITFYDYAMGWYRQAPGKEREFVASITSSGGSTYYADSVKGRFTISRDNAKTTVYLQMNSLKPQDPAVYYCAARGYNPYGRKVGYWGQGTQVTVSS”, the “polyreactivity (PSR sort gate)” value is “high polyreactivity”. The result for “QVQLVESGGGLDQAGGSLRLSCAASGLIFIQNAMGWYRQAPGKEREFVAAISVSGRTYYADSVKGRFTISRDNAKNTVYLQMNSLKPEDTAVYYCAARSRSWRQRYGDFDYWGQGTQVTVSS” reads “low polyreactivity”; that for “QVQLVESGGGLDQAGGSLRLSCAASGLIFSQYTMGWYRQAPGKERELVASITWRGGSTYADSVKGRFTISRDNAKNTVYLQMNSLKPEDTAVYYCAADYKPSYYLRQSYGYWGQGTQVTVSS”, “low polyreactivity”. For “QVQLVESGGGLDQAGGSLRLSCAASGLTFWYYAMGWYRQAPGKERELVVAISWSGGRTSYADSVKGRFTISRDNAKNTVYLQMNSLKPEDTAVYYCAADKDFRTGEYEYDYWGQGTQVTVSS” the value was “high polyreactivity”; for “QVQLVESGGGLDQAGGSLRLSCAASGLTFYSYAMGWYRQAPGKERELVAAISSSGGNTYYADSVKGRFTISRDNAKNTVYLQMNSLKPEDTAVYYCAARYTAYIQYGMGYWGQGTQVTVSS”, “high polyreactivity”. For “QVQLVESGGGLDQAGGSLRLSCAASGNIFYRYAMGWYRQAPWKERELVAAISGNSGNTYYADSVKGRFTISRDNAKNTVYLQMNSLKPEDTAVYYCAAERRAFGHYSWGQGTQVTVSS”, the “polyreactivity (PSR sort gate)” value is given as “high polyreactivity”. For “QVQLVESGGGLDQAGGSLRLSCAASGRIFDSNAMGWYRQAPGKERELVAAISYDGGSTYYADSVKGRFTISRDNAKNTVYLQMNSLKPEDTAVYYCAGDDGWYYYYGYDYWGQGTQVTVSS” the value was “low polyreactivity”. The result for “QVQLVESGGGLDQAGGSLRLSCAASGRIFGYYVMGWYRQAPGKEREFVAAISRSGGSTYYADSVKGRFTISRDNAKTTVYLQMNSLKPEDTAVYYCAKRVSTYGFSGYDYWGQGTQVTVSS” reads “high polyreactivity”; that for “QVQLVESGGGLDQAGGSLRLSCAASGRIFLVYVMGWYRQAPGKERELVAAISASDGSTYYADSVKGRFTISRDNANNTVYLQMNSLKPEDTAVDYCAEWGYSLDSNSYRELNYWGQGTQVNVSS”, “low polyreactivity”. In the case of “QVQLVESGGGLDQAGGSLRLSCAASGRIFSRYTMGWYRQAPGKERELVAAISSGGGSNYADSVKGRFTISRDNAKNSVYLQMTSLNPEDTEVYYCNARSWLSRGYGYWGQGTQVTVSS”, the “polyreactivity (PSR sort gate)” value is given as “high polyreactivity”. For “QVQLVESGGGLDQAGGSLRLSCAASGRIIYWYAMGWFRQAPGKERELVAAINNGGGTNYADSVKGRFTISRDNAKHTVYLQMNSLKPEDTAVYYCAADYVFYSRFFTEVYWGQGTQVTVSS” the value was “low polyreactivity”; for “QVQLVESGGGLDQAGGSLRLSCAASGRILGYNALGWYRQAPGKERELVAAIRTGTTNYADSVKGRFTISRDNAKNTVYLQMNSLKPEDTAVYYCAALRPYNEGSSHLFRYDYWGQGTQVTVSS”, “low polyreactivity”; for “QVQLVESGGGLDQAGGSLRLSCAASGRIVVGYAMGWYRQAPGKERELVAAINRSGSSTYYADSVKGRFTISRDNGKITVYLQMNSLKPEDTAVYYCNARSGNRYGPRYDYWGQGTQVTVSS”, “high polyreactivity”. Consider “QVQLVESGGGLDQAGGSLRLSCAASGRTFFYNAMGWYRQAPGKESEWDAAISYSGGSTYYADSVKGRFTISRDNAKNTVYLQMNSLKPEDTAVYYCAARDKTRSVRRTGMDYWGQGTQVTVSS”, for which the “polyreactivity (PSR sort gate)” value was “high polyreactivity”.

Consider “QVQLVESGGGLDQAGGSLRLSCAASGRTFGWYAMGWYRQAPGTERELVAVISSSGGRTYYADSVKGRFTISRDNAKNTVYLQLNSLKPEDTAVYYCATPNGSKRYSYYYWGQGTQVTVSS”, for which the “polyreactivity (PSR sort gate)” value is listed as “high polyreactivity”. Regarding “QVQLVESGGGLDQAGGSLRLSCAASGRTFRNYVMGWYRQAPGKERELVAAISRSGGSTYYADSVKGRFTISRDNAKNSVYLQMNSLKPEDTAVYYCNTVTTYDVEYWGQGTQVTVSS”, the “polyreactivity (PSR sort gate)” value is on record as “high polyreactivity”. For “QVQLVESGGGLDQAGGSLRLSCAASGRTFSWYAMGWYRQAPGKERELVAAITYSGGNTYYAHSVKGRFTISRDNAKITVYLLRNSLKPDDNAVYYCAAPSLIAKYEYWGQGTQVTVSS” the value was “high polyreactivity”; for “QVQLVESGGGLDQAGGSLRLSCAASGSIFAYAMPLYRQAPGKERELVASISTSTDITYADSVKGRFTISRDNAMNSVYFLMNSLKPEDTAVYYCAATYWQWWGWYDYWGEGTQVTVSS”, “high polyreactivity”. The result for “QVQLVESGGGLDQAGGSLRLSCAASGSIFGNNAMGWYRQAPGKERELVASISSSSGSTNYADSVKGRFTISRDNAKNTVYVQMNSLKPEDTAVYYCAARWRYWSRKYDYWGQGTQVTVSS” reads “high polyreactivity”; that for “QVQLVESGGGLDQAGGSLRLSCAASGSIFSTYAMGWYRQAPGKERELVAAISRNGGSTSYADSVKGRFTISRDNAKNTVYLQMNILKPEDTAVYYCNAGVYWPGEFDYWGQGTQVTVSS”, “high polyreactivity”. Consider “QVQLVESGGGLDQAGGSLRLSCAASGSIFTQYAMGWYRQAPGKERELVAAITSGGSTYADSVKGRFTISRDNAKNTVYLQMNSLKPEDTAVYYCATPYSYRGVTFNYWGQGTLVTVSS”, for which the “polyreactivity (PSR sort gate)” value is on record as “low polyreactivity”. Consider “QVQLVESGGGLDQAGGSLRLSCAASGSIFWSYDRGWYRQAPGKETELVATITSGDSTYYADSVKGRFTISRDNEKNTVYLPMKSLKPEDTAVYYCAAGTFYRPTYCHREYDYWGQGTQVTVSS”, for which the “polyreactivity (PSR sort gate)” value is reported as “low polyreactivity”. With “QVQLVESGGGLDQAGGSLRLSCAASGSIFWYNTMGWYRQAPGKERELVAAITFSGGSTYYADSVKGRFTISRDNAKNTVYLQMNSLKPEDTAVYYCAAVFYSAVGYFYWGQGTQVTVSS”, the “polyreactivity (PSR sort gate)” value is recorded as “low polyreactivity”.

In the case of “QVQLVESGGGLDQAGGSLRLSCAASGSISAIYTMGWYRQAPGKERELVAAISSGDSTNYADSVKGRFTISRDNAKNTVYLQMNSLKPEDTAVYYCATERSHLATGQGYYYVQTFYYWGQGTEVTVSS”, the “polyreactivity (PSR sort gate)” value is “low polyreactivity”.

The values are drawn from the nanobody polyreactivity screen of Harvey et al. (2022).
